{
  "source": "patent US20100048412A1",
  "target": "R19-Ava-…-NH2 (2)",
  "experiment": "cell-based or functional assay",
  "data": [
    {"substance": "prostate-specific antigen (PSA), proteolytically active (from UniProt P07288 25-261) (enzyme)", "values": [
      {"measurement": "suppression of peptide digestion by 420 nM PSA after addition of the protease inhibitor mix (AEBSF, Aprotinin, Elastatinal, GGACK)", "result": "> 90", "unit": "%"}
    ]}
  ]
}
